Laboratory results: publication doi:10.1101/2022.09.21.508839
“And” between values parts separate entries of the source, which are not always exact repeats. Equal values may be shown once.

Target: F-type ATP synthase from bovine heart mitochondria (Bos taurus (bovine))
Assay: native gel or EMSA

- stoichiometry N: 2 and 4
Substance: F-type ATP synthase from bovine heart mitochondria (complex)
